{"source": "paper PMC5412023", "key": {"[1]": {"target": "GST-TET2 CR (cysteine-rich domain of TET2, residues 1129-1322, fused to glutathione S-transferase), wild type (UniProt Q6N021)", "assay": "MST; microscale thermophoresis, Monolith NT.115, analysed by PRISM; biotinylated histone H3 peptides with GST-TET2 CR wild type or W1291R"}, "GST-TET2 CR W1291R": {"target": "GST-TET2 CR W1291R (UniProt Q6N021)", "assay": "MST; microscale thermophoresis, Monolith NT.115, analysed by PRISM; biotinylated histone H3 peptides with GST-TET2 CR wild type or W1291R"}, "[2]": {"target": "GST-TET2 CR (cysteine-rich domain of TET2, residues 1129-1322, fused to glutathione S-transferase), wild type (UniProt Q6N021)", "assay": "MST; microscale thermophoresis, Monolith NT.115, analysed by PRISM; mononucleosome binding to the wild-type CR domain"}}}
{"substance": "histone H3_(21-44) K36me1 peptide (from UniProt P68431 22-45)", "values": [{"measurement": "Kd", "setting": "[1]", "value": 688, "unit": "nM"}, {"measurement": "Kd", "setting": "GST-TET2 CR W1291R", "value": 11000, "unit": "nM"}]}
{"substance": "histone H3_(21-44) K36me2 peptide (from UniProt P68431 22-45)", "values": [{"measurement": "Kd", "setting": "[1]", "value": 734, "unit": "nM"}, {"measurement": "Kd", "setting": "GST-TET2 CR W1291R", "value": 27500, "unit": "nM"}]}
{"substance": "histone H3_(21-44) unmodified peptide (from UniProt P68431 22-45)", "values": [{"measurement": "Kd", "setting": "[1]", "value": 21000, "unit": "nM"}, {"measurement": "Kd", "setting": "GST-TET2 CR W1291R", "value": 946, "unit": "nM"}]}
{"substance": "mononucleosome (complex)", "values": [{"measurement": "Kd", "setting": "[2]", "value": 387, "unit": "nM"}]}
